Laboratory results: patent US20260131000A1 (Memorial Sloan Kettering, published 2026)
Substitutions are numbered along the chain they refer to.

B1: 13F04 (antibody, V domains shown)
VH: QVQLQQPGAELVKPGASVKLSCKASGYIFISYWMHWVKQRPGQGLEWIGEINPRNGRTNYNEKFKSKATLTVDKSSSTAYMQLTSLTSEDSAVYYCARGGDYGGSFDYWGQGTTLTVSS
VL: DIVLTQSPASLAVSLGQRATISCRASESVDSYGNSFMHWYQQKPGQPPKLLIYRASNLESGIPARFSGSGSRTDFTLTVNPVEADDVATYYCQQSNEDPWTFGGGTKLEIK
B2: 13G04 (antibody, V domains shown)
VH: QVQLVQSGAEVKKPGASVKVSCKASGYTFIGYYLHWVRQAPGQGLEWMGWINPNSGGTNSAQKFQGRVTMTRDTSISTTYMDLSRLRSDDTAVYYCARGGLERRDAFDIWGQGTLVTVSS
VL: DIQMTQSPSTLSASVGDRVTITCRASQSISNWLAWYQQKPGKAPNLLIYKASSLESGVPSRFSGSGSGTEFTLTISSLQPDDFATYYCQQYDTYRTFGQGTKVEIK
B3: 14A10 (antibody, V domains shown)
VH: EVQMVESGGGLVQPGGSLRLSCAAPGFIFSSYNMNWVRQAPGKGLEWVSYISSSSSTTYYADSVKGRFTISRDNAKNSLYLQMNSLRDEDTAVYYCASLYSGYDYYYYYGMDVWGQGTTVTVSS
VL: DIVMTQTPLSSPVSLGQPASISCRSSQSLVHSDGNTYLSWLQQRPGQPPRVLIYKISKRFSGVPDRFSGSGAGTDFTLKISRVEAEDVGVYYCMQATQFPFTFGPGTKVDIK
B4: 143G03 (antibody, V domains shown)
VH: QVQLRQSGAELVRPGTSVKMSCKASGYTFTNYYIHWVKQRPGQGLEWIGKIGPGSGSPYYNGMFKDKATLTVDTSSSTAYMQLSSLTSEDSAVYFCARWLLPFDYWGQGTTLTVSS
VL: QIVLSQSPGILSASPGEKVTMTCRASSSVNYMHWYQQKSGSSPKPWIFATSILASGVPPRFSGSGSGTSYSLTISSVEAEDTATYYCQQFSSDPLTFGAGTKLELK
B5: Fab Construct 1 (chimeric 76H12 Fab, parental mouse 76H12 V-regions) (Fab, V domains shown)
VH: QVQLQQPGSDLVRPGTSVKLSCKASGYTFTSYWMHWVKQRPGQGLEWIGNVYPGSGSTKYDEKFKTKATLTVDTSSNTAYMELSSLTSEDSAVYYCTRPGNYEGFAYWGQGTLVTVSA
VL: B1 VL with D1N, N34S, R54L, I62V, V79I, N80D, V87A, S95N
notes: domain: CH1; also called Fab 1; chimeric Fab; not shown: constant region of human kappa light chain
B6: Fab Construct 2 (humanized 76H12 Fab) (Fab, V domains shown)
VH: QVQLVQSGAEVKKPGASVKVSCKASGYTFTSYWMHWVRQAPGQGLEWMGNVYPGSGSTKYAQKFQGRVTMTRDTSTSTVYMELSSLRSEDTAVYYCARPGNYEGFAYWGQGTLVTVSS
VL: NIQLTQSPSSLSASVGDRVTITCRASESVDSYGSSFMHWYQQKPGKPPKLLIYLASNLESGVPSRFSGSGSGTDFTLTISSLQPEDFATYYCQQNNEDPWTFGQGTKLEIK
notes: domain: CH1; also called Fab 2; h76H12_Hv0/h76H12_Lv3; not shown: constant region of human kappa light chain

Molecular target: L1CAM endogenously expressed on MCF-7 and MDA-MB-231 cells (UniProt P32004)
Assay: flow cytometry, MCF-7 cells

EC50 | Binder
1.2 nM | B1
4.8 nM | B2
5.3 nM | B3
0.35 nM | B4

Molecular target: L1CAM endogenously expressed on MCF-7 and MDA-MB-231 cells (UniProt P32004)
Assay: flow cytometry, MDA-MB-231 cells

EC50 | Binder
1.7 nM | B1
6.7 nM | B2
8.9 nM | B3
0.9 nM | B4

Molecular target: human L1CAM overexpressed on HEK293T cells (human, UniProt P32004 20-1257)
Sequence (P32004 20-1257): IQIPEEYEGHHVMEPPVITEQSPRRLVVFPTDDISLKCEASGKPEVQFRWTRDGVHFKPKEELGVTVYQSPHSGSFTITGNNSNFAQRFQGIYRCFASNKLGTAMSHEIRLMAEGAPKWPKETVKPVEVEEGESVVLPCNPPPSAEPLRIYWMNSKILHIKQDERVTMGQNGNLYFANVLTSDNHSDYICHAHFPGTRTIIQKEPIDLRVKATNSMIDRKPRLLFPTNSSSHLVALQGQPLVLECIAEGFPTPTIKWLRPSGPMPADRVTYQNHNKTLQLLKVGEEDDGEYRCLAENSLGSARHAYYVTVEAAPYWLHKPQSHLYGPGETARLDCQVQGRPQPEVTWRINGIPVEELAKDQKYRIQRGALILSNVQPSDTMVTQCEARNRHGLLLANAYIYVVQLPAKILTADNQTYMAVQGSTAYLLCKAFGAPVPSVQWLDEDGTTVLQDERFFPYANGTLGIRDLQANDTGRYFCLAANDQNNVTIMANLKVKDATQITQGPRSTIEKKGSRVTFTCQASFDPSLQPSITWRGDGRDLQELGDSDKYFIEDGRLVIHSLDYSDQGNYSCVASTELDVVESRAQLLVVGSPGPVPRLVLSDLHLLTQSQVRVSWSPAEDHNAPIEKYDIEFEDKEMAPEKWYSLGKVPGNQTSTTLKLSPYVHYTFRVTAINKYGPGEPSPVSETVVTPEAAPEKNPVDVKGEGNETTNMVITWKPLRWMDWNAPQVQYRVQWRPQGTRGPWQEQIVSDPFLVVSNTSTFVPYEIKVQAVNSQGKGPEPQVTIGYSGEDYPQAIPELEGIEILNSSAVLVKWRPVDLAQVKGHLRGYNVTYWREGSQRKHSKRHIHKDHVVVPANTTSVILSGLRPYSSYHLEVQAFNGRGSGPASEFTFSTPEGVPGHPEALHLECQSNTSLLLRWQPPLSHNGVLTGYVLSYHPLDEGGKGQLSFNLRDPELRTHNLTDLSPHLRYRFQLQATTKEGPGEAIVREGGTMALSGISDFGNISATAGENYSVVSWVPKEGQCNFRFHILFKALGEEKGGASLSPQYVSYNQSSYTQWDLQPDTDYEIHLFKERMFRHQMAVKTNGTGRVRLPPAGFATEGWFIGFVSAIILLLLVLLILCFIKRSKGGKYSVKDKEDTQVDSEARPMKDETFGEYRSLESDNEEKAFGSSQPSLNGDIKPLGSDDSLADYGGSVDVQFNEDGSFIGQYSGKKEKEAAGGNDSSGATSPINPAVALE
Assay: flow cytometry on HEK293T cells overexpressing L1CAM (panel HEK293T-L1CAM), GMFI ratio to 2nd only against log[Fab], nM
Text: A total of 11 humanized 76H12 Fab variants (Fabs 2-12) were generated in addition to a chimeric 76H12 Fab (Fab 1) containing the parental murine VH and VL sequences. The chimeric Fab served as the benchmark for comparative assessment of humanized Fab variants. […] All humanized variants bound to the L1CAM overexpressing cells, with most binding comparably to the chimeric 76H12 Fab. […] Here, recombinant L1CAM-Fc fusion protein was immobilized onto anti-Human IgG Fc Capture (AHC) biosensors and binding of Fabs was measured kinetically over a 3-200 nM concentration range. Kinetic data were fitted to a 1:1 binding model to compute association (kₒₙ) and dissociation (koff) rate constants, in addition to equilibrium dissociation constants (KD) as shown in Table 59. […] From these, Fab 3 represents the preferred humanized variant given higher identity to human germline IGHV1-46 and IGKV1-39 sequences resulting from fewer human-to-murine framework back mutations.

EC50 (read off the curve) | Binder
~70 nM | B5
~200 nM | B6
